What follows are substances tested against Bal gp120 (HIV-1 isolate Bal) (assay: ELISA, bal gp120 coated, scFv).

Question: How did the EC50 turn out when mature scFv b12 was run?
Answer: 0.0013 µM

Question: scFv b12 germline mutant A52P/G53Y was tested. Which EC50 did it give?
Answer: 0.0873 µM

Question: Which EC50 does the source give for scFv b12 germline mutant G53Y here?
Answer: > 1 µM

What follows are substances tested against Bal gp120 (HIV-1 isolate Bal) (assay: ELISA, bal gp120 coated, scFv-Fc).

Question: Which EC50 does the source give for b12 A52P/G53Y scFv-Fc (Fc fusion) here?
Answer: 0.0293 µM

Question: How did the EC50 turn out when b12 G53Y scFv-Fc (Fc fusion) was run?
Answer: > 1 µM

Question: With mature b12 scFv-Fc (Fc fusion) as the substance, how does the EC50 read?
Answer: 0.0004 µM
